Positions count from the first letter of the chain named. Names may count otherwise.

The labels stand for the following.
B1: MTSP-1 I41R/ins97aE/F97T/T98G/F99L/C122S/G151D/Q175L/Q192E (enzyme)
chain: VVGGTDADEGEWPWQVSLHALGQGHRCGASLISPNWLVSAAHCYIDDRGFRYSDPTQWTAFLGLHDQSQRSAPGVQERRLKRIISHPFFNDTEGLDYDIALLELEKPAEYSSMVRPISLPDASHVFPAGKAIWVTGWGHTQYGGTDALILQKGEIRVINQTTCENLLPQLITPRMMCVGFLSGGVDSCEGDSGGPLSSVEADGRIFQAGVVSWGDGCAQRNKPGVYTRLPLFRDWIKENTGV
B2: MTSP-1 Y59F/D96V/ins97aE/F97T/T98G/F99L/C122S/Q175L/Q192E (enzyme)
chain: B1 chain with R26I, Y44F, D91V, D146G
B3: MTSP-1 ins97aA/F97G/T98N/F99L/C122S/Q175M/Q192T/K224A (enzyme)
chain: B1 chain with R26I, T92G, E93A, G94N, D146G, L170M, E189T, K222A
B4: MTSP-1 I41R/ins97aE/F97T/T98G/F99L/C122S/G151N/Q175L/Q192D (enzyme)
chain: B1 chain with D146N, E189D
B5: MTSP-1 ins97aD/F97Q/T98G/F99L/C122S/Q175L/Q192E/D217F/K224S (enzyme)
chain: B1 chain with R26I, T92Q, E93D, D146G, D215F, K222S
B6: MTSP-1 I41R/ins97aE/F97T/T98G/F99L/C122S/G151D/Q175I/Q192D (enzyme)
chain: B1 chain with L170I, E189D
B7: MTSP-1 ins97aE/F97Y/T98S/F99L/C122S/Q192T/D217Q/K224R (enzyme)
chain: B1 chain with R26I, T92Y, G94S, D146G, L170Q, E189T, D215Q, K222R
B8: MTSP-1 S90T/D96A/ins97aE/F97T/T98G/F99L/C122S/Q175L/Q192D (enzyme)
chain: B1 chain with R26I, S85T, D91A, D146G, E189D
B9: MTSP-1 I41R/F97T/ins97aE/T98G/F99L/C122S/G151N/Q175S/Q192E (enzyme)
chain: B1 chain with D146N, L170S
B10: MTSP-1 ins97aV/F97Q/T98P/F99L/C122S/Q175F/Q192D (enzyme)
chain: B1 chain with R26I, T92Q, E93V, G94P, D146G, L170F, E189D
B11: MTSP-1 I41R/ins97aE/F97T/T98G/F99L/C122S/G151N/Q175T/Q192E (enzyme)
chain: B1 chain with D146N, L170T
B12: MTSP-1 I41R/F97T/ins97aE/T98G/F99L/C122S/G151D/Q175I/Q192E (enzyme)
chain: B1 chain with L170I
B13: MTSP-1 ins97aV/F97D/T98P/F99L/C122S/Q192G (enzyme)
chain: B1 chain with R26I, T92D, E93V, G94P, D146G, L170Q, E189G
B14: MTSP-1 I41R/ins97aE/F97T/T98G/F99L/C122S/G151D/Q175T/Q192E (enzyme)
chain: B1 chain with L170T
B15: MTSP-1 I41R/ins97aE/F97T/T98G/F99L/C122S/G151N/Q175S/Q192D (enzyme)
chain: B1 chain with D146N, L170S, E189D
B16: MTSP-1 F97M/ins97aD/T98D/F99L/C122S/Q192T (enzyme)
chain: B1 chain with R26I, T92M, E93D, G94D, D146G, L170Q, E189T
B17: MTSP-1 I41R/F97T/ins97aE/T98G/F99L/C122S/G151N/Q175I/Q192E (enzyme)
chain: B1 chain with D146N, L170I
B18: MTSP-1 I41R/ins97aE/F97T/T98G/F99L/C122S/G151E/Q175T/Q192D (enzyme)
chain: B1 chain with D146E, L170T, E189D
B19: MTSP-1 I41R/F97T/ins97aE/T98G/F99L/C122S/G151N/Q175I/Q192D (enzyme)
chain: B1 chain with D146N, L170I, E189D
B20: MTSP-1 I41R/F97T/ins97aE/T98G/F99L/C122S/G151E/Q175T/Q192E (enzyme)
chain: B1 chain with D146E, L170T
B21: MTSP-1 ins97aD/F97T/T98S/F99L/C122S/Q192E/D217Y/K224R (enzyme)
chain: B1 chain with R26I, E93D, G94S, D146G, L170Q, D215Y, K222R
B22: MTSP-1 H40P/I41R/ins97aE/F97T/T98G/F99L/C122S/Q175L/Q192E (enzyme)
chain: B1 chain with H25P, D146G
B23: MTSP-1 I41R/ins97aE/F97T/T98G/F99L/C122S/G151D/Q175T/Q192D (enzyme)
chain: B1 chain with L170T, E189D
B24: MTSP-1 H40P/I41R/ins97aE/F97T/T98G/F99L/C122S/G151D/Q175L/Q192E (enzyme)
chain: B1 chain with H25P
B25: MTSP-1 F97N/ins97aT/T98Y/F99N/C122S (enzyme)
chain: B1 chain with R26I, T92N, E93T, G94Y, L95N, D146G, L170Q, E189Q
B26: MTSP-1 I41R/ins97aE/F97T/T98G/F99L/C122S/G151N/Q175T/Q192D (enzyme)
chain: B1 chain with D146N, L170T, E189D
B27: MTSP-1 ins97aE/F97T/T98G/F99L/C122S/Q175L/Q192E/Q209L (enzyme)
chain: B1 chain with R26I, D146G, Q207L
B28: MTSP-1 ins97aD/F97G/T98N/F99L/C122S/Q192E/D217Y/K224R (enzyme)
chain: B1 chain with R26I, T92G, E93D, G94N, D146G, L170Q, D215Y, K222R
B29: MTSP-1 I41R/ins97aE/F97T/T98G/F99L/C122S/Q175L/Q192E (enzyme)
chain: B1 chain with D146G
B30: MTSP-1 ins97aG/F97N/T98D/F99L/C122S/Q192E/D217H/K224A (enzyme)
chain: B1 chain with R26I, T92N, E93G, G94D, D146G, L170Q, D215H, K222A
B31: MTSP-1 ins97aN/F97H/T98D/F99L/C122S/Q192E/D217Q/K224S (enzyme)
chain: B1 chain with R26I, T92H, E93N, G94D, D146G, L170Q, D215Q, K222S
B32: MTSP-1 I41R/ins97aE/F97T/T98G/F99L/C122S/G151N/Q175L/Q192E (enzyme)
chain: B1 chain with D146N
B33: MTSP-1 F97Q/ins97aT/T98M/C122S/Q192E/D217R/K224L (enzyme)
chain: B1 chain with R26I, T92Q, E93T, G94M, L95F, D146G, L170Q, D215R, K222L
B34: MTSP-1 Y59F/ins97aE/F97T/T98G/F99L/C122S/Q175L/Q192E (enzyme)
chain: B1 chain with R26I, Y44F, D146G
B35: MTSP-1 H40R/I41H/F97D/F99L/C122S/Q175R/Q192G/D217H/K224S (enzyme)
chain: VVGGTDADEGEWPWQVSLHALGQGRHCGASLISPNWLVSAAHCYIDDRGFRYSDPTQWTAFLGLHDQSQRSAPGVQERRLKRIISHPFFNDDTLDYDIALLELEKPAEYSSMVRPISLPDASHVFPAGKAIWVTGWGHTQYGGTGALILQKGEIRVINQTTCENLLPQRITPRMMCVGFLSGGVDSCGGDSGGPLSSVEADGRIFQAGVVSWGHGCAQRNSPGVYTRLPLFRDWIKENTGV
B36: MTSP-1 H40R/I41H/F97D/F99L/C122S/G151N/Q192H/D217K/K224A (enzyme)
chain: B35 chain with G145N, R169Q, G188H, H214K, S221A
B37: MTSP-1 H40R/I41H/F97D/F99L/C122S/G151N/Q192N/D217L/K224R (enzyme)
chain: B35 chain with G145N, R169Q, G188N, H214L, S221R
B38: MTSP-1 H40P/I41R/F99L/C122S/G151E/Q192G (enzyme)
chain: B35 chain with R25P, H26R, D92F, G145E, R169Q, H214D, S221K
B39: MTSP-1 H40R/I41H/F97D/F99L/C122S/Q192G/D217K/K224A (enzyme)
chain: B35 chain with R169Q, H214K, S221A
B40: MTSP-1 H40R/I41H/F99L/C122S/G151E/Q192G (enzyme)
chain: B35 chain with D92F, G145E, R169Q, H214D, S221K
B41: MTSP-1 H40P/I41R/F99L/C122S/G151K/Q192G (enzyme)
chain: B35 chain with R25P, H26R, D92F, G145K, R169Q, H214D, S221K
B42: MTSP-1 H40P/I41R/F99L/C122S/Q192G (enzyme)
chain: B35 chain with R25P, H26R, D92F, R169Q, H214D, S221K
B43: MTSP-1 H40R/I41H/F97D/F99L/C122S/Q175R/Q192G/D217E/K224R (enzyme)
chain: B35 chain with H214E, S221R
B44: MTSP-1 H40R/I41H/F97D/F99L/C122S/Q192G/D217I/K224S (enzyme)
chain: B35 chain with R169Q, H214I
B45: MTSP-1 H40R/I41H/F97D/C122S/Q175R/Q192G/D217I/K224Q (enzyme)
chain: B35 chain with L94F, H214I, S221Q
B46: MTSP-1 H40R/I41H/Y60gF/F97D/F99L/C122S/Q175K/Q192G/D217R/K224Q (enzyme)
chain: B35 chain with Y52F, R169K, H214R, S221Q

The target in the test is plasma purified human complement protein C3 (human) (UniProt P01024). Put plainly: cell-based or functional assay.
plasma purified human complement protein C3 (human), sequence (P01024 23-667, chain 1 of 2): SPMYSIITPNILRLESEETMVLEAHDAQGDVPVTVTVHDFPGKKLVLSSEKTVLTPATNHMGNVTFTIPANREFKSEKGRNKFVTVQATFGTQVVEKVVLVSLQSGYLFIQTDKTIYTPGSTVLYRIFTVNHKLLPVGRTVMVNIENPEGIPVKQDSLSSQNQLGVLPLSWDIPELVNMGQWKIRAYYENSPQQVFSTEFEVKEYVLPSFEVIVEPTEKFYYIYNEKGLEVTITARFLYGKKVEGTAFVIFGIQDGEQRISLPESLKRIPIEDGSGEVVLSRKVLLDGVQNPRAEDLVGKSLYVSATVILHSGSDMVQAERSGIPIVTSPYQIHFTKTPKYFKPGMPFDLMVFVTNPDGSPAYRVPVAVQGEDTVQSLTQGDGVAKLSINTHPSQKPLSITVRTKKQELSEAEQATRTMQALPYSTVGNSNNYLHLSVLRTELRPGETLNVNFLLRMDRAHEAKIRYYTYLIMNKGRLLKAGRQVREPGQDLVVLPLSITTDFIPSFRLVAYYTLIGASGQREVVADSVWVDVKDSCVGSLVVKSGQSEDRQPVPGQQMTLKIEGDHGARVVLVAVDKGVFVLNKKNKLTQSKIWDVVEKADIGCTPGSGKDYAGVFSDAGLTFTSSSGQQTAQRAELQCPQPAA
plasma purified human complement protein C3 (human), sequence (P01024 672-1663, chain 2 of 2): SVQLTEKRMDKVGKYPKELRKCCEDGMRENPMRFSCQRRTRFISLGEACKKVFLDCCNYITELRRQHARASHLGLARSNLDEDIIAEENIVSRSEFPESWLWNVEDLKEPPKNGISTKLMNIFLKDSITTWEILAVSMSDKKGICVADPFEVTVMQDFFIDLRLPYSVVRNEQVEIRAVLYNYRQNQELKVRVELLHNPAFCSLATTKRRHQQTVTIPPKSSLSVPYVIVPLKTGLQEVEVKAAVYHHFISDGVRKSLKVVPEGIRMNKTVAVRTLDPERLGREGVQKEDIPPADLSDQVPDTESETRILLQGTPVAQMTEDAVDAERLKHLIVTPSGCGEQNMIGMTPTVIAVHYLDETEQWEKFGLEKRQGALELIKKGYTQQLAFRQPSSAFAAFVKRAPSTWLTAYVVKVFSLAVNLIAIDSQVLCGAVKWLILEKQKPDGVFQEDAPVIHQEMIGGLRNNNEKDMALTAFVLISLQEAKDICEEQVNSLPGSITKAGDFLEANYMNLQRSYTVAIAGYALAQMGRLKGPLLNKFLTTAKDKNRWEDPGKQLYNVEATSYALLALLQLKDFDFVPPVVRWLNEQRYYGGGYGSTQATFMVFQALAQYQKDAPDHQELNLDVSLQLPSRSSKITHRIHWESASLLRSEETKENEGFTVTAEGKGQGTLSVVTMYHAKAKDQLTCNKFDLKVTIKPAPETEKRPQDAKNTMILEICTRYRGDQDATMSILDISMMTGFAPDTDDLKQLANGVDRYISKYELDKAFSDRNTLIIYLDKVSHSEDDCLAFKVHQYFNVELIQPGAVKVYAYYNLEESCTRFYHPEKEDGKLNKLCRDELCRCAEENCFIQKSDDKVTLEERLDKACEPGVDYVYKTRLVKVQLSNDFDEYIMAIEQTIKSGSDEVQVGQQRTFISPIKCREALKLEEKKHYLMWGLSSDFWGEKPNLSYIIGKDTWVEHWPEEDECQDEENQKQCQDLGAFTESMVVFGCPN
Turning to B1, the EC50 of hC3 cleavage turned out to be 163 nM.
In turn, B2 came in with an EC50 of hC3 cleavage of 293 nM.
The figure for B3 is 200 nM.
With B4, the EC50 of hC3 cleavage was found to be 622 nM.
On to B5, for which the EC50 of hC3 cleavage was determined as 5560 nM.
In the case of B6, the EC50 of hC3 cleavage worked out at 1750 nM.
The figure for B7 is 249 nM; for B8 it is 280 nM; for B9 it is 267 nM.
With B10, the EC50 of hC3 cleavage amounted to 248 nM.
With B11, the EC50 of hC3 cleavage stood at 1410 nM.
For B12 the value was 2070 nM; for B13, 53.5 nM.
Take B14: the EC50 of hC3 cleavage came to 743 nM.
Take B15: the EC50 of hC3 cleavage turned out to be 2080 nM.
As to B16, the EC50 of hC3 cleavage was 151 nM.
B17 showed an EC50 of hC3 cleavage of 1030 nM.
B18 came in with an EC50 of hC3 cleavage of 1770 nM.
The figure for B19 is 8370 nM.
Consider B20, for which the EC50 of hC3 cleavage stood at 363 nM.
Regarding B21, the EC50 of hC3 cleavage stood at 5000 nM.
Turning to B22, the EC50 of hC3 cleavage is 442 nM.
On to B23, for which the EC50 of hC3 cleavage came out at 1620 nM.
B24 registered an EC50 of hC3 cleavage of 212 nM.
Turning to B25, the EC50 of hC3 cleavage worked out at 184 nM.
For the molecule B26, the EC50 of hC3 cleavage was 9990 nM.
The figure for B27 is 383 nM; for B28 it is 9870 nM.
In turn, B29 displayed an EC50 of hC3 cleavage of 523 nM.
For B30 the value was 2790 nM.
The figure for B31 is 2750 nM; for B32 it is 311 nM.
As for B33, the EC50 of hC3 cleavage was found to be 2450 nM.
The molecule B34 came in with an EC50 of hC3 cleavage of 341 nM.
B35 yielded an EC50 of hC3 cleavage of 45.2 nM.
B36: the EC50 of hC3 cleavage was determined as 137 nM.
Take B37: the EC50 of hC3 cleavage was 346 nM.
For the molecule B38, the EC50 of hC3 cleavage was 153 nM.
In turn, B39 returned an EC50 of hC3 cleavage of 23.4 nM.
B40 had an EC50 of hC3 cleavage of 829 nM.
B41 returned an EC50 of hC3 cleavage of 96.1 nM.
In the case of B42, the EC50 of hC3 cleavage amounted to 62.4 nM.
For B43 the value was 31.2 nM; for B44, 19.3 nM; for B45, 93.1 nM.
The figure for B46 is 93.4 nM.

Values taken from patent publication US20240018502A1.
